The results in this text go back to the supplement of paper PMC10567573.

Sequences and labels used below:
B1: TBX6 (parent)
chain: AFLELPHGSGGSGYPAAPPAVPFA
B2: RAD51 (parent)
chain: RFLRMLLRLADEFGVAVVITNQVV
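Also: lentivirally expressed fusions sorted by FACS into six bins by GFP to DsRed ratio, PSI derived from sequencing read proportions per bin multiplied by bin number.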

In the first data set the parent is B1. Nature of the data set: protein stability index of a GFP-peptide fusion (GPS, HEK-293T) (PSI 1-6); higher = more stable. The conditions noted are these: c terminus: a fixed tail appended.
As to AFLELPHGSGGSGYCAAPPAVPFA [P15C], the protein stability index amounted to 1.8.
On the same count and under the same terms, next, AFLELPHGSGGSGYPAAPLAVPFA [P19L]: 2.25.
The same measure, in the same setting: next, AFLELPHGSGGSGYPAAPQAVPFA [P19Q]: 2.47; AFLELPHGSGGSGYPAAPNAVPFA [P19N]: 2.06.
Same read-out and setting: next, AFLELPHGSGGCGYPAAPPAVPFA [S12C]: 2.12; AFLELPHGSGGSGYPARPPAVPFA [A17R]: 2.37.
Consider AFLELPHGSIGSGYPAAPPAVPFA [G10I], for which the protein stability index is 2.55.
On to AFLELPHGSGGSGYPAAPPAVPDA [F23D], for which the protein stability index stood at 4.19.
Same read-out and setting: next, AFLELPHGSGGSGYPAAPPMVPFA [A20M]: 2.35.

The variants in the next data set derive from B2. Described as above. The conditions noted are these: c terminus: a fixed tail appended.
For the variant RFLRHLLRLADEFGVAVVITNQVV [M5H], the protein stability index came out at 3.79.
On the same count and under the same terms, in the case of RFLRLLLRLADEFGVAVVITNQVV [M5L] it was 2.13; in that of RFLRILLRLADEFGVAVVITNQVV [M5I], 2.23.
For the variant RFLRTLLRLADEFGVAVVITNQVV [M5T], the protein stability index was found to be 3.18.
Same read-out and setting: in the case of RFLRRLLRLADEFGVAVVITNQVV [M5R] it was 1.83; in that of RFLRQLLRLADEFGVAVVITNQVV [M5Q], 2.11; in that of RFLRNLLRLADEFGVAVVITNQVV [M5N], 1.93.
The same measure, in the same setting: in the case of RFLRYLLRLADEFGVAVVITNQVV [M5Y] it was 2.57; in that of RFLRKLLRLADEFGVAVVITNQVV [M5K], 4.13.
Still for that read-out and setting: in the case of RFLRFLLRLADEFGVAVVITNQVV [M5F] it was 2.15; in that of RFLRCLLRLADEFGVAVVITNQVV [M5C], 3.05.
For RFLRDLLRLADEFGVAVVITNQVV [M5D], the protein stability index was 2.28.
Still for that read-out and setting: in the case of RFLRELLRLADEFGVAVVITNQVV [M5E] it was 2.43; in that of RFLRSLLRLADEFGVAVVITNQVV [M5S], 2.93; in that of RFLRALLRLADEFGVAVVITNQVV [M5A], 3.9.
Still for that read-out and setting: next, RFRRMLLRLADEFGVAVVITNQVV [L3R]: 1.17; RFDRMLLRLADEFGVAVVITNQVV [L3D]: 2.04.
Same read-out and setting: in the case of RFERMLLRLADEFGVAVVITNQVV [L3E] it was 3.2; in that of RFWRMLLRLADEFGVAVVITNQVV [L3W], 2.03.
Consider RFHRMLLRLADEFGVAVVITNQVV [L3H], for which the protein stability index was found to be 2.75.
On the same count and under the same terms, in the case of RFNRMLLRLADEFGVAVVITNQVV [L3N] it was 3.69; in that of RFMRMLLRLADEFGVAVVITNQVV [L3M], 2.19; in that of RFYRMLLRLADEFGVAVVITNQVV [L3Y], 2.14.
Take RFARMLLRLADEFGVAVVITNQVV [L3A]: the protein stability index came out at 4.15.
Regarding RFCRMLLRLADEFGVAVVITNQVV [L3C], the protein stability index was determined as 1.78.
Same read-out and setting: next, RFQRMLLRLADEFGVAVVITNQVV [L3Q]: 1.78; RFVRMLLRLADEFGVAVVITNQVV [L3V]: 3.98.
Regarding RFGRMLLRLADEFGVAVVITNQVV [L3G], the protein stability index was 2.62.
Still for that read-out and setting: in the case of RFTRMLLRLADEFGVAVVITNQVV [L3T] it was 3.74; in that of RFIRMLLRLADEFGVAVVITNQVV [L3I], 1.35.
For the variant RFSRMLLRLADEFGVAVVITNQVV [L3S], the protein stability index was found to be 3.09.
On the same count and under the same terms, next, RFKRMLLRLADEFGVAVVITNQVV [L3K]: 2.6; RFLRMLGRLADEFGVAVVITNQVV [L7G]: 3.06.
Same read-out and setting: in the case of RFLRMLSRLADEFGVAVVITNQVV [L7S] it was 1.6; in that of RFLRMLTRLADEFGVAVVITNQVV [L7T], 2.6.
Same read-out and setting: in the case of RFLRMLIRLADEFGVAVVITNQVV [L7I] it was 2.79.
Take RFLRMLQRLADEFGVAVVITNQVV [L7Q]: the protein stability index is 2.34.
On to RFLRMLPRLADEFGVAVVITNQVV [L7P], for which the protein stability index was determined as 2.49.
In the case of RFLRMLERLADEFGVAVVITNQVV [L7E], the protein stability index was determined as 2.69.
In the case of RFLRMLYRLADEFGVAVVITNQVV [L7Y], the protein stability index is 2.13.
The same measure, in the same setting: next, RFLRMLHRLADEFGVAVVITNQVV [L7H]: 2.34.
Still for that read-out and setting: in the case of RFLRMLRRLADEFGVAVVITNQVV [L7R] it was 1.49; in that of RFLRMLKRLADEFGVAVVITNQVV [L7K], 1.98.
On the same count and under the same terms, next, RFLRMLCRLADEFGVAVVITNQVV [L7C]: 2.54.
On to RFLRMLARLADEFGVAVVITNQVV [L7A], for which the protein stability index is 1.25.
On the same count and under the same terms, next, RFLRMLNRLADEFGVAVVITNQVV [L7N]: 1.71; RFLRMLWRLADEFGVAVVITNQVV [L7W]: 1.94.
The same measure, in the same setting: in the case of RFLRMLDRLADEFGVAVVITNQVV [L7D] it was 1.3; in that of RFLRMLFRLADEFGVAVVITNQVV [L7F], 2.04.
For RFLRMLVRLADEFGVAVVITNQVV [L7V], the protein stability index came to 2.15.
On the same count and under the same terms, next, RFLRMLMRLADEFGVAVVITNQVV [L7M]: 1.55.
On the same count and under the same terms, in the case of SFLRMLLRLADEFGVAVVITNQVV [R1S] it was 2.27.
On the same count and under the same terms, next, YFLRMLLRLADEFGVAVVITNQVV [R1Y]: 2.8; KFLRMLLRLADEFGVAVVITNQVV [R1K]: 2.54; NFLRMLLRLADEFGVAVVITNQVV [R1N]: 2.71.
For HFLRMLLRLADEFGVAVVITNQVV [R1H], the protein stability index amounted to 1.78.
As for DFLRMLLRLADEFGVAVVITNQVV [R1D], the protein stability index is 2.
The same measure, in the same setting: in the case of FFLRMLLRLADEFGVAVVITNQVV [R1F] it was 1.92; in that of QFLRMLLRLADEFGVAVVITNQVV [R1Q], 1.79; in that of MFLRMLLRLADEFGVAVVITNQVV [R1M], 2.43.
Still for that read-out and setting: next, LFLRMLLRLADEFGVAVVITNQVV [R1L]: 2.12.
Regarding TFLRMLLRLADEFGVAVVITNQVV [R1T], the protein stability index was found to be 1.37.
Still for that read-out and setting: in the case of AFLRMLLRLADEFGVAVVITNQVV [R1A] it was 1.62; in that of CFLRMLLRLADEFGVAVVITNQVV [R1C], 2.23.
Still for that read-out and setting: next, GFLRMLLRLADEFGVAVVITNQVV [R1G]: 2.51.
On the same count and under the same terms, in the case of WFLRMLLRLADEFGVAVVITNQVV [R1W] it was 3; in that of EFLRMLLRLADEFGVAVVITNQVV [R1E], 2.06; in that of VFLRMLLRLADEFGVAVVITNQVV [R1V], 1.52.
PFLRMLLRLADEFGVAVVITNQVV [R1P]: the protein stability index is 2.08.
Take IFLRMLLRLADEFGVAVVITNQVV [R1I]: the protein stability index stood at 2.9.
With RFLFMLLRLADEFGVAVVITNQVV [R4F], the protein stability index was 2.58.
Still for that read-out and setting: in the case of RFLVMLLRLADEFGVAVVITNQVV [R4V] it was 1.91; in that of RFLYMLLRLADEFGVAVVITNQVV [R4Y], 2.93.
Same read-out and setting: in the case of RFLIMLLRLADEFGVAVVITNQVV [R4I] it was 2.45; in that of RFLDMLLRLADEFGVAVVITNQVV [R4D], 1.96.
The same measure, in the same setting: next, RFLPMLLRLADEFGVAVVITNQVV [R4P]: 2.39; RFLWMLLRLADEFGVAVVITNQVV [R4W]: 1.77; RFLEMLLRLADEFGVAVVITNQVV [R4E]: 1.23.
For RFLKMLLRLADEFGVAVVITNQVV [R4K], the protein stability index is 2.82.
Still for that read-out and setting: in the case of RFLCMLLRLADEFGVAVVITNQVV [R4C] it was 2.77; in that of RFLTMLLRLADEFGVAVVITNQVV [R4T], 2.42; in that of RFLHMLLRLADEFGVAVVITNQVV [R4H], 2.49.
On the same count and under the same terms, in the case of RFLNMLLRLADEFGVAVVITNQVV [R4N] it was 3.36; in that of RFLQMLLRLADEFGVAVVITNQVV [R4Q], 1.92.
Same read-out and setting: next, RFLMMLLRLADEFGVAVVITNQVV [R4M]: 1.97.
